Laboratory results: patent publication US20080249606

T1: endostatin exposed to Ellagic acid, P39060
T1 chain: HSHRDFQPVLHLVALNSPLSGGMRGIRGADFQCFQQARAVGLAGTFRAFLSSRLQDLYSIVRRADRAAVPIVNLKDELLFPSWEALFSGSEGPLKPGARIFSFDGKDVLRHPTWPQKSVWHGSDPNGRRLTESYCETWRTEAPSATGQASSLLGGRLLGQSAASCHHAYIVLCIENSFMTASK


How the values were obtained:
[1] = target: Gelofusin (Braun Melsungen AG)
[2] = target: T1, endostatin exposed to Ellagic acid, …
[3] = target: endostatin exposed to kaolin, P39060
[4] = target: BSA incubated overnight with dextran sulphate 500,000 Da (DXS500k), P02769
[5] = target: BSA exposed to Ellagic acid, P02769
[6] = target: Gelofusin mixed with lipopolysaccharide (LPS)
[7] = target: BSA exposed to kaolin, P02769
[8] = target: glycated haemoglobin (Hb-AGE), P69905
[9] = target: Bovine serum albumin (BSA), P02769
[10] = target: endostatin incubated overnight with DXS500k, P39060
[11] = target: endostatin, a recombinantly produced fragment of human collagen XVIII (EntreMed), P39060
[12] = target: Gelofusin mixed with kaolin
[13] = target: lysozyme exposed to Microlance-3 injection needles, P00698
Sequence of lysozyme exposed to Microlance-3 injection needles, P00698 (P00698 19-147): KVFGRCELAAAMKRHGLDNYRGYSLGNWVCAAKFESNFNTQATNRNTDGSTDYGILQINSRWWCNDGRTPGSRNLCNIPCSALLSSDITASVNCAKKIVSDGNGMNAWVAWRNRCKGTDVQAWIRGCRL

Sequence of glycated haemoglobin (Hb-AGE), P69905 (P69905 2-142, chain 1 of 2): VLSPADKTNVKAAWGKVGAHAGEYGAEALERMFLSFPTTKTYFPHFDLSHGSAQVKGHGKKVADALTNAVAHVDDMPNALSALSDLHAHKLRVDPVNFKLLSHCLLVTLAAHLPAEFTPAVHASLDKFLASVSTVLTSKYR
Sequence of glycated haemoglobin (Hb-AGE), P69905 (chain, as listed by the source, chain 2 of 2): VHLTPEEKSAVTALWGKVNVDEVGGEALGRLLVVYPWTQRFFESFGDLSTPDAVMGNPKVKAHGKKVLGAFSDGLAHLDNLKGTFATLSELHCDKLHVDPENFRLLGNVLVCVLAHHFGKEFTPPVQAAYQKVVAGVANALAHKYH
Sequence of Bovine serum albumin (BSA), P02769 (P02769 25-607): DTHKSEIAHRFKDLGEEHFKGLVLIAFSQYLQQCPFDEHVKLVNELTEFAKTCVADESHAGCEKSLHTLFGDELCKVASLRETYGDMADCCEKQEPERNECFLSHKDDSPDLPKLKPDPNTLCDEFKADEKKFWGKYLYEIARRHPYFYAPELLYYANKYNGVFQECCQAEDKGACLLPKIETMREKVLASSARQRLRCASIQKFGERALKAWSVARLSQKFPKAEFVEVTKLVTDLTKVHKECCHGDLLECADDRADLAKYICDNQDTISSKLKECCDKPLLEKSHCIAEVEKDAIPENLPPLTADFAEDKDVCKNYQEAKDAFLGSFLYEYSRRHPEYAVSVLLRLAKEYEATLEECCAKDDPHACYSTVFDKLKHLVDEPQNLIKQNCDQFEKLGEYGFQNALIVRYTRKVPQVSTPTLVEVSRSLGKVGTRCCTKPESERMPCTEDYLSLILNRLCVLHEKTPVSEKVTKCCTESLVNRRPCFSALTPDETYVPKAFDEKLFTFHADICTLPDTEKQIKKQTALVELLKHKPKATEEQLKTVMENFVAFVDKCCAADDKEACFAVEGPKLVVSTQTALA
Sequence of BSA exposed to kaolin, P02769 (P02769 25-607): as above
Sequence of BSA exposed to Ellagic acid, P02769 (P02769 25-607): as above
Sequence of BSA incubated overnight with dextran sulphate 500,000 Da (DXS500k), P02769 (P02769 25-607): as above

| Protein | chromogenic factor XII/prekallikrein activation assay with active enzyme kallikrein read-out [1] | chromogenic factor XII/prekallikrein activation assay [2] | FXII activation (conversion of Chromozym-PK by kallikrein) [3] | FXII activation (conversion of Chromozym-PK by kallikrein) [4] | chromogenic factor XII/prekallikrein activation assay [5] | chromogenic factor XII/prekallikrein activation assay with active enzyme kallikrein read-out [6] | FXII activation (conversion of Chromozym-PK by kallikrein) [7] | FXII activation [8] | FXII activation (conversion of Chromozym-PK by kallikrein) [9] | FXII activation (conversion of Chromozym-PK by kallikrein) [10] | FXII activation (conversion of Chromozym-PK by kallikrein) [11] | chromogenic factor XII/prekallikrein activation assay with active enzyme kallikrein read-out [12] | Plg-activation assay (plasmin substrate S-2251) [13] |
| --- | --- | --- | --- | --- | --- | --- | --- | --- | --- | --- | --- | --- | --- |
| factor XII (FXII, Calbiochem 233490) (protein) IPPWEAPKEHKYKAEEHTVVLTVTGEPCHFPFQYHRQLYHKCTHKGRPGPQPWCATTPNFDQDQRWGYCLEPKKVKDHCSKHSPCQKGGTCVNMPSGPHCLCPQHLTGNHCQKEKCFEPQLLRFFHKNEIWYRTEQAAVARCQCKGPDAHCQRLASQACRTNPCLHGGRCLEVEGHRLCHCPVGYTGAFCDVDTKASCYDGRGLSYRGLARTTLSGAPCQPWASEATYRNVTAEQARNWGLGGHAFCRNPDNDIRPWCFVLNRDRLSWEYCDLAQCQTPTQAAPPTPVSPRLHVPLMPAQPAPPKPQPTTRTPPQSQTPGALPAKREQPPSLTRNGPLSCGQRLRKSLSSMTRVVGGLVALRGAHPYIAALYWGHSFCAGSLIAPCWVLTAAHCLQDRPAPEDLTVVLGQERRNHSCEPCQTLAVRSYRLHEAFSPVSYQHDLALLRLQEDADGSCALLSPYVQPVCLPSGAARPSETTLCQVAGWGHQFEGAEEYASFLQEAQVPFLSLERCSAPDVHGSSILPGMLCAGFLEGGTDACQGDSGGPLVCEDQAAERRLTLQGIISWGSGCGDRNKPGVYTDVAYYLAWIREHTVS | Gelofusin alone does not stimulate factor XII/prekalikrein activation | exposure of the proteins to the polyphenol surface induces increased capacity to activate factor XII/prekallikrein | combinations of surface and protein cofactor results in FXII and subsequent prekallikrein activity | combinations of surface and protein cofactor results in FXII and subsequent prekallikrein activity | exposure of the proteins to the polyphenol surface induces increased capacity to activate factor XII/prekallikrein | enhanced activity is seen when Gelofusin is mixed with kaolin or LPS | combinations of surface and protein cofactor results in FXII and subsequent prekallikrein activity | Presence of cross-β structure conformation in Hb-AGE was conformed by tPA binding, tPA activation, FXII activation | Neither BSA or endostatin alone, nor kaolin or DXS500k alone are efficient activators of FXII | combinations of surface and protein cofactor results in FXII and subsequent prekallikrein activity | Neither BSA or endostatin alone, nor kaolin or DXS500k alone are efficient activators of FXII | enhanced activity is seen when Gelofusin is mixed with kaolin or LPS | – |
| tissue-type plasminogen activator (tPA, Actilyse, Boehringer-Ingelheim) (protein) SYQVICRDEKTQMIYQQHQSWLRPVLRSNRVEYCWCNSGRAQCHSVPVKSCSEPRCFNGGTCQQALYFSDFVCQCPEGFAGKCCEIDTRATCYEDQGISYRGTWSTAESGAECTNWNSSALAQKPYSGRRPDAIRLGLGNHNYCRNPDRDSKPWCYVFKAGKYSSEFCSTPACSEGNSDCYFGNGSAYRGTHSLTESGASCLPWNSMILIGKVYTAQNPSAQALGLGKHNYCRNPDGDAKPWCHVLKNRRLTWEYCDVPSCSTCGLRQYSQPQFRIKGGLFADIASHPWQAAIFAKHRRSPGERFLCGGILISSCWILSAAHCFQERFPPHHLTVILGRTYRVVPGEEEQKFEVEKYIVHKEFDDDTYDNDIALLQLKSDSSRCAQESSVVRTVCLPPADLQLPDWTECELSGYGKHEALSPFYSERLKEAHVRLYPSSRCTSQHLLNRTVTDNMLCAGDTRSGGPQANLHDACQGDSGGPLVCLNDGRMTLVGIISWGLGCGQKDVPGVYTKVTNYLDWIRDNMRP | – | – | – | – | – | – | – | – | – | – | – | – | When the plasma protein lysozyme is exposed to the stainless steel of a Microlance-3 injection needle, tPA activating properties are induced |
